From publication PMC10789646, “Uncovering the non-histone interactome of the BRPF1 bromodomain using site-specific azide-acetyllysine photochemistry” (The Journal of Biological Chemistry, 2023)
Positions count from the first letter of the chain named. Where no end group is shown, it is not given here.

B1: diacetylated ILF3 peptide 8 (peptide)
peptide: RVGLVAK(Ac)GLLLK(Ac)G
notes: holds the KGLLLK (100-105) motif; also called RVGLVAKacGLLLKacG 8; source: synthetic peptide (GL Biochem Ltd and S. Biochem Ltd, HPLC purified)
B2: WT BRPF1 bromodomain (domain or fragment)
chain: MEMQLTPFLILLRKTLEQLQEKDTGNIFSEPVPLSEVPDYLDHIKKPMDFFTMKQNLEAYRYLNFDDFEEDFNLIVSNCLKYNAKDTIFYRAAVRLREQGGAVLRQARRQAEKMG
notes: bromodomain of bromodomain-PHD finger protein 1 (BRPF1); vector pNIC28-Bsa4; also called bromodomain-PHD finger protein 1 bromodomain; source: E. coli One Shot BL21 star (DE3), purified (Ni-NTA, Superdex-75)
B3: BRPF1 bromodomain N651AzF (domain or fragment)
chain: B2 chain with N26F
modifications: 4-azido-L-phenylalanine (AzF) at 651
notes: bromodomain of BRPF1 with the unnatural amino acid 4-azido-L-phenylalanine in place of N651; also called BRPF1-N651AzF; engineered BRPF1 bromodomain; source: E. coli One Shot BL21 Star (DE3) with pEVOL-pAzF (amber suppression), purified (Ni-NTA, Superdex-75); not shown: 6xHis, N-terminal, kept

How the values were obtained:
WT BRPF1 bromodomain = target: B2; assay: ITC; peptide (1.5 to 1.8 mM, syringe) injected into protein (80 to 100 μM, cell); 15 °C; 50 mM Hepes pH 7.5, 200 mM NaCl, 5% glycerol; single-binding site model; settings: both partners purified
[1] = target: histone H4K5acK8ac peptide 2 (acetyl-lysine at K5 and K8); assay: as above; settings: both partners purified

| Binder | Kd (WT BRPF1 bromodomain) [µM] | Kd [1] [µM] |
| --- | --- | --- |
| B1 | 250 ± 10.2 | – |
| B2 | – | 24.6 ± 3.1 |
| B3 | – | 21.6 ± 2.1 |
